B1: peptide HD2 (from tick evasin EVA4) / CCL22 (biotinylated, synthetic) (parent complex)
chain 1: EEDDYTAYAPLTCYFT
chain 2: GPYGANMEDSVCCRDYVRYRLPLRVVKHFYWTSDSCPRPGVVLLTFRDKEICADPRVPWVKMILNKLSQ
B2: peptide HD2 (from tick evasin EVA4) / CCL11 (biotinylated, synthetic) (parent complex)
chain 1: EEDDYTAYAPLTCYFT
chain 2: not shown

Variants of: B1

Row | Variant | enrichment
1 | chain 1 EEDDTTAYAPLTCYFT [chain 1 Y5T] | -6.08 log2 (difference from the parental peptide)
2 | chain 1 EEDDHTAYAPLTCYFT [chain 1 Y5H] | -5 log2 (difference from the parental peptide)
3 | chain 1 EEDDDTAYAPLTCYFT [chain 1 Y5D] | -5.05 log2 (difference from the parental peptide)
4 | chain 1 EEDDYSAYAPLTCYFT [chain 1 T6S] | 3.56 log2 (difference from the parental peptide)
5 | chain 1 EEDDYLAYAPLTCYFT [chain 1 T6L] | -2.3 log2 (difference from the parental peptide)
6 | chain 1 EEEDYTAYAPLTCYFT [chain 1 D3E] | 1.1 log2 (difference from the parental peptide)
7 | chain 1 EEGDYTAYAPLTCYFT [chain 1 D3G] | -4.28 log2 (difference from the parental peptide)
8 | chain 1 EEHDYTAYAPLTCYFT [chain 1 D3H] | -5.38 log2 (difference from the parental peptide)
9 | chain 1 EEADYTAYAPLTCYFT [chain 1 D3A] | -3.86 log2 (difference from the parental peptide)
10 | chain 1 EEDDYTAYAPLTSYFT [chain 1 C13S] | -3.73 log2 (difference from the parental peptide)
11 | chain 1 EEDDYTAYAPLTMYFT [chain 1 C13M] | -3.12 log2 (difference from the parental peptide)
12 | chain 1 EEDDYTAYAPLTAYFT [chain 1 C13A] | -6.82 log2 (difference from the parental peptide)
13 | chain 1 EEDDYTAYAPLTFYFT [chain 1 C13F] | -6.63 log2 (difference from the parental peptide)
14 | chain 1 IEDDYTAYAPLTCYFT [chain 1 E1I] | -1.58 log2 (difference from the parental peptide)
15 | chain 1 REDDYTAYAPLTCYFT [chain 1 E1R] | -5.65 log2 (difference from the parental peptide)
16 | chain 1 EEDDYTAYAPLDCYFT [chain 1 T12D] | -6.65 log2 (difference from the parental peptide)
17 | chain 1 EEDDYTAYAPLLCYFT [chain 1 T12L] | 0.0229 log2 (difference from the parental peptide)
18 | chain 1 EEDDYTAYAPLCCYFT [chain 1 T12C] | -1.01 log2 (difference from the parental peptide)
19 | chain 1 EEDDYTAYAPLGCYFT [chain 1 T12G] | -10.3 log2 (difference from the parental peptide)
20 | chain 1 EEDDYTAYNPLTCYFT [chain 1 A9N] | -4.75 log2 (difference from the parental peptide)
21 | chain 1 EEDDYTAYWPLTCYFT [chain 1 A9W] | -3.76 log2 (difference from the parental peptide)
22 | chain 1 EEDDYTAYSPLTCYFT [chain 1 A9S] | -2.79 log2 (difference from the parental peptide)
23 | chain 1 EEDDYTAYGPLTCYFT [chain 1 A9G] | -7.69 log2 (difference from the parental peptide)
24 | chain 1 EEDDYTAYLPLTCYFT [chain 1 A9L] | -6.75 log2 (difference from the parental peptide)
25 | chain 1 EEDDYTAYAPLTCYST [chain 1 F15S] | -0.181 log2 (difference from the parental peptide)
26 | chain 1 EEDDYTAYAPLTCYET [chain 1 F15E] | -3.12 log2 (difference from the parental peptide)
27 | chain 1 EEDDYTAYAPLTCYRT [chain 1 F15R] | 0.817 log2 (difference from the parental peptide)
28 | chain 1 EEDDYTIYAPLTCYFT [chain 1 A7I] | -3 log2 (difference from the parental peptide)

Row | Variant | enrichment
29 | chain 1 EEDDYTTYAPLTCYFT [chain 1 A7T] | -1.44 log2 (difference from the parental peptide)
30 | chain 1 EEDDYTEYAPLTCYFT [chain 1 A7E] | 1.56 log2 (difference from the parental peptide)
31 | chain 1 EEDDYTPYAPLTCYFT [chain 1 A7P] | 1.84 log2 (difference from the parental peptide)
32 | chain 1 EEDDYTAYAPLTCYFI [chain 1 T16I] | 0.113 log2 (difference from the parental peptide)
33 | chain 1 EEDDYTAYAPLTCYFW [chain 1 T16W] | -0.731 log2 (difference from the parental peptide)
34 | chain 1 EEDDYTAYAPLTCYFK [chain 1 T16K] | 2.2 log2 (difference from the parental peptide)
35 | chain 1 EEDDYTAYAPLTCYFL [chain 1 T16L] | 0.694 log2 (difference from the parental peptide)
36 | chain 1 EWDDYTAYAPLTCYFT [chain 1 E2W] | -1.93 log2 (difference from the parental peptide)
37 | chain 1 ETDDYTAYAPLTCYFT [chain 1 E2T] | -3.84 log2 (difference from the parental peptide)
38 | chain 1 EVDDYTAYAPLTCYFT [chain 1 E2V] | -2.63 log2 (difference from the parental peptide)
39 | chain 1 ENDDYTAYAPLTCYFT [chain 1 E2N] | -3.61 log2 (difference from the parental peptide)
40 | chain 1 EQDDYTAYAPLTCYFT [chain 1 E2Q] | -3.9 log2 (difference from the parental peptide)
41 | chain 1 ELDDYTAYAPLTCYFT [chain 1 E2L] | -2.82 log2 (difference from the parental peptide)
42 | chain 1 ESDDYTAYAPLTCYFT [chain 1 E2S] | -3.12 log2 (difference from the parental peptide)
43 | chain 1 EEDDYTAYAELTCYFT [chain 1 P10E] | -6.9 log2 (difference from the parental peptide)
44 | chain 1 EEDDYTAYAFLTCYFT [chain 1 P10F] | -9.41 log2 (difference from the parental peptide)
45 | chain 1 EEDDYTAAAPLTCYFT [chain 1 Y8A] | -7.77 log2 (difference from the parental peptide)
46 | chain 1 EEDDYTAFAPLTCYFT [chain 1 Y8F] | -0.0331 log2 (difference from the parental peptide)
47 | chain 1 EEDDYTALAPLTCYFT [chain 1 Y8L] | -7.77 log2 (difference from the parental peptide)
48 | chain 1 EEDDYTADAPLTCYFT [chain 1 Y8D] | -7.54 log2 (difference from the parental peptide)
49 | chain 1 EEDDYTAYAPLTCDFT [chain 1 Y14D] | -4.53 log2 (difference from the parental peptide)
50 | chain 1 EEDDYTAYAPLTCCFT [chain 1 Y14C] | -2.09 log2 (difference from the parental peptide)
51 | chain 1 EEDDYTAYAPLTCHFT [chain 1 Y14H] | 2.15 log2 (difference from the parental peptide)
52 | chain 1 EEDFYTAYAPLTCYFT [chain 1 D4F] | -7.18 log2 (difference from the parental peptide)
53 | chain 1 EEDNYTAYAPLTCYFT [chain 1 D4N] | -4.06 log2 (difference from the parental peptide)
54 | chain 1 EEDAYTAYAPLTCYFT [chain 1 D4A] | -8.08 log2 (difference from the parental peptide)
55 | chain 1 EEDYYTAYAPLTCYFT [chain 1 D4Y] | -4.71 log2 (difference from the parental peptide)

Variants of: B2

Row | Variant | enrichment
56 | chain 1 D3M | -2.72 log2 (difference from the parental peptide)
57 | chain 1 D3I | -3.65 log2 (difference from the parental peptide)
58 | chain 1 D4K | -5.45 log2 (difference from the parental peptide)
59 | chain 1 D4F | -4.42 log2 (difference from the parental peptide)
60 | chain 1 D4I | -4.32 log2 (difference from the parental peptide)
61 | chain 1 D4L | -4.32 log2 (difference from the parental peptide)
62 | chain 1 D4Y | -1.9 log2 (difference from the parental peptide)
63 | chain 1 D4W | -3.16 log2 (difference from the parental peptide)
64 | chain 1 D4P | -3.25 log2 (difference from the parental peptide)
65 | chain 1 D4S | -3.54 log2 (difference from the parental peptide)
66 | chain 1 D4T | -4.2 log2 (difference from the parental peptide)
67 | chain 1 D4G | -4.8 log2 (difference from the parental peptide)
68 | chain 1 T6I | -5.35 log2 (difference from the parental peptide)
69 | chain 1 T6M | -0.715 log2 (difference from the parental peptide)
70 | chain 1 T6N | 1.61 log2 (difference from the parental peptide)
71 | chain 1 C13S | -5.22 log2 (difference from the parental peptide)
72 | chain 1 C13M | -6.39 log2 (difference from the parental peptide)
73 | chain 1 C13Y | -6.32 log2 (difference from the parental peptide)
74 | chain 1 C13Q | -8.37 log2 (difference from the parental peptide)
75 | chain 1 T12K | -5.35 log2 (difference from the parental peptide)
76 | chain 1 T12F | -3.13 log2 (difference from the parental peptide)
77 | chain 1 T12P | -3.61 log2 (difference from the parental peptide)
78 | chain 1 E2H | -2.49 log2 (difference from the parental peptide)
79 | chain 1 E2A | -0.825 log2 (difference from the parental peptide)
80 | chain 1 E2W | -2.09 log2 (difference from the parental peptide)
81 | chain 1 E2V | -1.61 log2 (difference from the parental peptide)

Row | Variant | enrichment
82 | chain 1 E2L | -1.7 log2 (difference from the parental peptide)
83 | chain 1 E2D | 1.39 log2 (difference from the parental peptide)
84 | chain 1 E2T | -2.27 log2 (difference from the parental peptide)
85 | chain 1 E2R | -4.24 log2 (difference from the parental peptide)
86 | chain 1 T16W | -0.88 log2 (difference from the parental peptide)
87 | chain 1 T16K | -0.03 log2 (difference from the parental peptide)
88 | chain 1 T16C | -0.0325 log2 (difference from the parental peptide)
89 | chain 1 T16Q | 1.62 log2 (difference from the parental peptide)
90 | chain 1 T16A | 1.44 log2 (difference from the parental peptide)
91 | chain 1 T16L | 0.412 log2 (difference from the parental peptide)
92 | chain 1 P10Y | -5.97 log2 (difference from the parental peptide)
93 | chain 1 A7P | 0.578 log2 (difference from the parental peptide)
94 | chain 1 A7N | 1.29 log2 (difference from the parental peptide)
95 | chain 1 A7E | 2.59 log2 (difference from the parental peptide)
96 | chain 1 A7M | 1.99 log2 (difference from the parental peptide)
97 | chain 1 A7R | 0.794 log2 (difference from the parental peptide)
98 | chain 1 A7S | 0.886 log2 (difference from the parental peptide)
99 | chain 1 A7F | -1.71 log2 (difference from the parental peptide)
100 | chain 1 Y8V | -8.13 log2 (difference from the parental peptide)
101 | chain 1 Y8A | -4.4 log2 (difference from the parental peptide)
102 | chain 1 Y8W | -1.91 log2 (difference from the parental peptide)
103 | chain 1 Y8N | -5.38 log2 (difference from the parental peptide)
104 | chain 1 Y5M | -1.54 log2 (difference from the parental peptide)
105 | chain 1 Y5S | -5.35 log2 (difference from the parental peptide)
106 | chain 1 Y5H | -6.32 log2 (difference from the parental peptide)
107 | chain 1 Y5F | 0.0717 log2 (difference from the parental peptide)

Row | Variant | enrichment
108 | chain 1 Y5A | -6.65 log2 (difference from the parental peptide)
109 | chain 1 Y5N | -5.96 log2 (difference from the parental peptide)
110 | chain 1 Y5G | -5.68 log2 (difference from the parental peptide)
111 | chain 1 L11R | -0.735 log2 (difference from the parental peptide)
112 | chain 1 L11N | -4.38 log2 (difference from the parental peptide)
113 | chain 1 L11S | -0.475 log2 (difference from the parental peptide)
114 | chain 1 F15N | -1.58 log2 (difference from the parental peptide)
115 | chain 1 F15K | -4.78 log2 (difference from the parental peptide)
116 | chain 1 F15V | 0.59 log2 (difference from the parental peptide)
117 | chain 1 E1G | -0.291 log2 (difference from the parental peptide)
118 | chain 1 E1S | -0.538 log2 (difference from the parental peptide)
119 | chain 1 E1T | -0.645 log2 (difference from the parental peptide)
120 | chain 1 E1F | -2.2 log2 (difference from the parental peptide)
121 | chain 1 Y14D | -4.78 log2 (difference from the parental peptide)
122 | chain 1 Y14R | -8.35 log2 (difference from the parental peptide)
123 | chain 1 Y14V | -3.71 log2 (difference from the parental peptide)
124 | chain 1 Y14F | 0.149 log2 (difference from the parental peptide)
125 | chain 1 Y14T | -4.02 log2 (difference from the parental peptide)
126 | chain 1 A9V | -5.98 log2 (difference from the parental peptide)
127 | chain 1 A9S | -1.28 log2 (difference from the parental peptide)
128 | chain 1 A9Y | -4.85 log2 (difference from the parental peptide)
129 | chain 1 A9R | -1.6 log2 (difference from the parental peptide)
130 | chain 1 A9E | 0.893 log2 (difference from the parental peptide)
131 | chain 1 A9M | -3.46 log2 (difference from the parental peptide)

Reference: publication PMC11969024 (2025)
